Target: Recombinant chick netrin-1 (chick, UniProt Q90922 26-606)
Test: retention on a 30 kD cut-off size exclusion

Does PRYQHTGAVYLLSASPQ [Integrin α3 peptide] bind?
Result: binds
